Measurements: publication doi:10.1101/2025.06.11.659212 (bioRxiv, 2025)

Target: the molecule itself
Experiment: cryo-EM structure

Row | Protein | stoichiometry N [monomers]
1 | cyanide dihydratase from Bacillus safensis strain PER-URP-08 (enzyme, UniProt P0DXY3 1-330, looked up) MTSIYPKFRAAAVQAAPVYLNLEATVEKSCELIDEAASNGAKLVAFPEAFLPGYPWFAFIGHPEYTRKFYHELYKNAVEIPSLAIQKISEAAKRNETYVCISCSEKDGGSLYLAQLWFNPNGDLIGKHRKMRASVAERLIWGDGSGSMMPVFQTDIGNLGGLMCWEHQVPLDLMAMNAQNEQVHVASWPGYFDDEISSRYYAIATQTFVLMTSSIYTEEMKEMICLTQEQRDYFETFKSGHTCIYGPDGEPISDMVPAETEGIAYAEIDVERVIDYKYYIDPAGHYSNQSLSMNFNQQPTPVVKQLYHQKNEVFTYEDIQYQHGILEEKV | 18
2 | cyanide hydratase from Gloeocercospora sorghi (enzyme, UniProt P32964 1-368, looked up) MPINKYKAAVVTSEPVWENLEGGVVKTIEFINEAGKAGCKLIAFPEVWIPGYPYWMWKVNYLQSLPMLKAYRENSIAMDSSEMRRIRAAARDNQIYVSIGVSEIDHATLYLTQVLISPLGDVINHRRKIKPTHVEKLVYGDGSGDSFEPVTQTEIGRLGQLNCWENMNPFLKSLAVARGEQIHVAAWPVYPDLSKQVHPDPATNYADPASDLVTPAYAIETGTWVLAPFQRISVEGLKRHTPPGVEPETDATPYNGHARIFRPDGSLYAKPAVDFDGLMYVDIDLNESHLTKALADFAGHYMRPDLIRLLVDTRRKELVTEVGGGDNGGIQSYSTMARLGLDRPLEEEDYRQGTDAGETEKASSNGHA | 24
